The values that follow are results of earlier work, collected in publication PMC3222890.

The target in series [1] is GDI (Saccharomyces cerevisiae) (UniProt P39958).
The target is the same in series [2]. The source holds these as a separate data set.
Series [3] has the same target. The source holds these as a separate data set.

Like-named read-outs stand apart in the source and are kept apart here.

Sequence of UniProt P39958 (P39958 whole entry): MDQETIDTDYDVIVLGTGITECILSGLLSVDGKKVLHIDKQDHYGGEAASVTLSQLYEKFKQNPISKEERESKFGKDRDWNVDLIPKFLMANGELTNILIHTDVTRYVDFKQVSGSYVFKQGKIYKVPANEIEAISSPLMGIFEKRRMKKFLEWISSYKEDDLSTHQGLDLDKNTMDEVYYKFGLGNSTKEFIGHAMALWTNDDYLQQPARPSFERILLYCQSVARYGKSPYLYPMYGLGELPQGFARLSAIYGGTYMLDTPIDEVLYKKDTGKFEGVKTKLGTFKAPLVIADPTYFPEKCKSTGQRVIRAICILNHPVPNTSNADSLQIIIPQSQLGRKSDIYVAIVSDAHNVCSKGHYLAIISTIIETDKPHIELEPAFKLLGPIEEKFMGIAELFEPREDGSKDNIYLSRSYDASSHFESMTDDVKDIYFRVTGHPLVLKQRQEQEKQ

Regarding Ypt32 (from UniProt P51996), the dissociation constant Kd in series [1] was 1500 nM.

Take Sec4 (from UniProt P07560): the Kd in series [2] is 330 nM.

As for Ypt31 (from UniProt P38555), the Kd in series [3] was 18900 nM.
